The values that follow come from paper PMC11039470, “Catalytic specificity and crystal structure of cystathionine γ-lyase from Pseudomonas aeruginosa” (Scientific Reports, 2024).

One data set concerns N[C@@H](CS)C(=O)O. Kind of data set: purified protein. In kind it is biochemical, Pseudomonas aeruginosa. The settings on record: PLP PLP-containing active site.
Data set [1] deals with N[C@@H](CCSC[C@H](N)C(=O)O)C(=O)O. Nature of the data set: DTNB assay steady-state kinetics (Km). As to conditions: PLP PLP-containing active site. The class given is biochemical, Pseudomonas aeruginosa.
The target of data set [2] is PaCGL F114N variant ("humanized"), N-terminal 6x-His tag (Pseudomonas aeruginosa). Nature of the data set: SEC; gel filtration on Sephacryl S-200 16/60 HR in 20 mM sodium phosphate pH 8.0, 150 mM NaCl, 0.1 mM DTT; calibration curve; self-association (tetramer). (In general: Size exclusion chromatography separates by hydrodynamic size, large species first.)
Data set [3] deals with cystathionine γ-lyase from Pseudomonas aeruginosa (PaCGL), wild type, N-terminal 6x-His tag (Pseudomonas aeruginosa). The data set is described as above.
Data set [4] has as its target T1, cystathionine γ-lyase (PaCGL) (Pseudomonas aeruginosa, UniProt Q9I6A0).
T1 construct: gene PA0400; 394-residue PaCGL (PAO1_PA0400), 6x-His tagged; homotetramer
Nature of the data set: intrinsic fluorescence titration of apo-PaCGL; […] Å crystal structure. In kind it is binding.

For data set [5], the target named is PaCGL F114A variant, N-terminal 6x-His tag (Pseudomonas aeruginosa). Nature of the data set: SEC; gel filtration on Sephacryl S-200 16/60 HR in 20 mM sodium phosphate pH 8.0, 150 mM NaCl, 0.1 mM DTT; calibration curve; self-association (tetramer).
Substrate in data set [6]: N[C@@H](CCS)C(=O)O
Kind of data set: lead acetate H2S assay kinetics (Km); LC-MS/MS. The class given is biochemical, Pseudomonas aeruginosa. The settings on record: PLP PLP-containing active site.

Substrate in data set [7]: N[C@@H](CCSC[C@H](N)C(=O)O)C(=O)O
Kind of data set: DTNB assay steady-state kinetics (Km); UV-Vis and CD spectra; LC-MS/MS. In kind it is biochemical, Pseudomonas aeruginosa. As to conditions: PLP PLP-containing active site (chamber-1).

Substrate in the data set “purified protein”: N[C@@H](CS)C(=O)O
Kind of data set: purified protein. The class given is biochemical, Pseudomonas aeruginosa. The settings on record: PLP amino acid site […] of the active site (second L-Cys at site […]).

The term Km denotes the substrate concentration at which the rate is half of its maximum. As a reminder, the kcat is the maximal rate divided by the concentration of active sites. One may read the kcat/Km as the second-order rate constant that governs catalysis at low substrate concentration. In the case of “cystathionine γ-lyase (PaCGL) (Pseudomonas aeruginosa PAO1; F114N)”, in the data set on N[C@@H](CS)C(=O)O, the Km amounted to 1600 ± 300 µM, the kcat worked out at 0.38 ± 0.06 s⁻¹ and the kcat/Km amounted to 240 ± 80 M⁻¹ s⁻¹. Besides, in data set [1], the Km was determined as 500 ± 100 µM, the turnover number (kcat) worked out at 3.2 ± 0.1 s⁻¹ and the specificity constant (kcat/Km) turned out to be 6400 ± 1500 M⁻¹ s⁻¹.
For orientation: stoichiometry N means the number of molecules, sites or subunits per partner or assembly. In data set [2], “PaCGL F114N variant ("humanized"), N-terminal 6x-His tag (enzyme)” came in with a stoichiometry N of 4.
In data set [3], “cystathionine γ-lyase from Pseudomonas aeruginosa (PaCGL), wild type, N-terminal 6x-His tag (enzyme)” gave a stoichiometry N of 4.
Take “cystathionine γ-lyase (PaCGL) (Pseudomonas aeruginosa PAO1; F114A)”: in the data set on N[C@@H](CS)C(=O)O, the Michaelis constant (Km) is 490 ± 10 µM, the kcat was 0.13 ± 0.01 s⁻¹ and the catalytic efficiency (kcat/Km) was determined as 270 ± 30 M⁻¹ s⁻¹. Further, in data set [1], the Michaelis constant (Km) was 600 ± 100 µM, the kcat was determined as 3.2 ± 0.2 s⁻¹ and the specificity constant (kcat/Km) amounted to 5300 ± 1200 M⁻¹ s⁻¹.
For orientation: Kd means the equilibrium constant for the complex coming apart. Read a low Kd as higher affinity. As for `Cc1ncc(COP(=O)(O)O)c(C=O)c1O` [PLP], binding in data set [4] was characterised by a dissociation constant (Kd) of 150 ± 10 nM.
Consider “PaCGL F114A variant, N-terminal 6x-His tag (enzyme)”, for which the stoichiometry N in data set [5] was 4.

B1: cystathionine γ-lyase (PaCGL) (Pseudomonas aeruginosa PAO1) (protein)
chain: MSQHDQHPDAPAQAFATRVIHAGQAPDPSTGAIMPPIYANSTYIQESPGVHKGLDYGRSHNPTRWALERCVADLEGGTQAFAFASGLAAISSVLELLDAGSHIVSGNDLYGGTFRLFERVRRRSAGHRFSFVDPTDLQAFEAALTPETRMVWVETPSNPLLRLTDLRAIAQLCRARGIISVADNTFASPYIQRPLELGFDVVVHSTTKYLNGHSDVIGGIAIVGDNPDLRERLGFLQNSVGAISGPFDAFLTLRGVKTLALRMERHCSNALALAQWLERQPQVARVYYPGLASHPQHELAKRQMRGFGGMISLDLRCDLAGARRFLENVRIFSLAESLGGVESLIEHPAIMTHASIPAETRADLGIGDSLIRLSVGVEALEDLQADLAQALAKI
notes: PaCGL with N-terminal 6x-His tag
As for B1, the Km is 1700 ± 300 µM in [6], 300 ± 40 µM in [7] and 430 ± 30 µM in “purified protein”. Also, the turnover number (kcat) in [6] amounted to 0.42 ± 0.04 s⁻¹; in data set [7], 5.2 ± 0.2 s⁻¹. Moreover, the figures for the specificity constant (kcat/Km) in data set [6] and in data set [7] were 250 ± 70 M⁻¹ s⁻¹ and 17000 ± 3000 M⁻¹ s⁻¹, respectively.
